Entries after “also recorded” stand apart in the source; their conditions may differ. Numbered stars: 1 amine (or outer) side, 2 acyl side, 3 side chain; on linkers, the order of the positions; unused ones are H or OH. Bridge positions count the residues as written; N and C are the ends. Square brackets hold non-standard residues; d marks the D form. Peptide text beside a SMILES is read from it. X1 = CC(=O)NC(C(=O)OC(C(C)C)C(N[*:1])C(=O)[*:2])C(O)C(C)C; PhLac = O=C(O)[CH](O)Cc1ccccc1; NMeT = CN[CH](C(=O)O)[CH](C)O; NMeA = CN[CH](C)C(=O)O; NMeDha = C=C(NC)C(=O)O
How the values were obtained:
Gq proteins [1] = target: Gq proteins
[2] = tested on: astrocytes within the mouse S1 cortex; test: In vivo two-photon imaging (920 nm) of ATP release (GRABATP sensor) following astrocyte activation; details: eight hours after intraperitoneal LPS
[3] = tested on: Gq signaling in HEK 293T cells; test: Light-induced Ca2+ signal (Calbryte 630 AM dye) in opsin-expressing HEK 293T cells; assay type: cell-based; details: for light-induced increase in Ca2+ signal: blue light 10 s, 100 μW/mm2, 488 nm, no exogenous retinal
Description: (§1) Whether heterologous expression of the Opn5 orthologs from chicken, turtles, humans and mice (which share 80-90% protein sequence identity) have the capacity to mediate blue light-induced Gq signaling activation within HEK 293T cells is tested (FIG. 1a and table 7). Blue light for stimulation and the red intracellular calcium indicator Calbryte™ 630 AM dye are used to monitor the relative Ca^2+ response (FIG. 1b).
b, Pseudocolor images of the Ca2+ signal before and after blue light stimulation (10 s; 100 μW/mm^2; 488 nm) in HEK 293T cells expressing Opn5 from three species (Gallus gallus, Homo sapiens, and Mus musculus). Scale bar, 10 μm.
Characterizing the light-activating properties of cOpn5 heterologously expressed in HEK 293T cells is performed. […] The effects of different light durations on cOpn5-expressing HEK 293T cells are tested. […] Therefore, the light sensitivity of cOpn5 is 3-4 orders of magnitude higher than the reported values of the light-sensitive Gq-coupled GPCRs and even 2-3 orders higher than those of the commonly used optogenetic tool Channelrhodopsin-2 (ChR2)(Lin, 2011; Zhang et al., 2006) (table 8).
The performance of cOpn5 to that of opto-a1AR, a chimera GPCR engineered by mixing rhodopsin with Gq-coupled adrenergic receptor is compared. […] The performance of cOpn5 to that of opn4, a natural opsin which was reported as a tool for Gq signaling activating is also compared. […] Therefore, compared with existing opsin-based tools (opto-a1AR and opn4), cOpn5 is much more light-sensitive (˜3 orders more sensitive), requires much shorter time exposure (10 ms vs. 60 s), and produces stronger responses. […]
Experiments description: the following table 9 is a partial list of cOpn5 orthologs from vertebrata tested in the present invention. Whole genes of all reported opsin5 orthologs from vertebrata (the vertebrates subphylum, including rotundia, cartilaginous fishes, bony fishes, Amphibia, reptila, ornitha and mammals) are synthetized, and expressed in HEK 293T cells. Calcium imaging with or without 470 nm blue light stimulation is performed to test the sensitivity of the opsin 5 orthologs in response to light. The time course of light-induced calcium signal reveal the activated degree of Gq signaling pathway and the sensitivity of these orthologs.

[4] = tested on: Gq signaling in HEK 293T cells; test: IP1 accumulation in Opn5-expressing HEK 293T cells; assay type: cell-based; details: 100 μW/mm2, 470 nm; for effect on light-evoked IP1 accumulation in cOpn5-expressing cells: YM-254890 treatment, 3 min; for light-induced increase in the level of inositol phosphate (IP1): continuous light 3 min
Description: as §1
f, YM suppressed the IP1 accumulation evoked by continuous light stimulation (3 min; 100 μW/mm^2; 470 nm) in cOpn5-expressing HEK 293T cells (Left). ***P<0.0001, *P=0.0128; Tukey's multiple comparisons test.

Gi signaling = test: cAMP levels in Opn5-expressing HEK 293T cells after photostimulation; assay type: cell-based; details: with retinal (10 μM retinal preincubation)
Description: as §1
f, Light has no effect on cAMP levels (10 μM forskolin preincubation) in cOpn5-expressing HEK 293T cells without additional retinal in the medium (left panel).

Gq proteins [5] = target: Gq proteins; remark: listed apart in the source
in vivo astrocytes = details: cited from earlier work
HEK293-TRPC3 cells = details: cited from earlier work

With “Chicken Opn5 (opsin 5, neuropsin) (receptor)” the light-induced Ca^2+ signal (Calbryte 630 AM) in HEK 293T cells (Gq proteins [1]) was 3 ΔF/F.

With lipopolysaccharide [LPS] the “increase of ATP flash events over basal condition” value [2] was about 6 fold and the ATP flash frequency ([2]; mice expressing GRABATP alone) was about 2 flashes per min.

For C=C1C(=O)NC(C)C(=O)N(C)C(C)C(=O)NC(C(OC(=O)C(NC(C)=O)C(O)C(C)C)C(C)C)C(=O)N(C)C(C(C)OC)C(=O)OC(C)C(NC(C)=O)C(=O)OC(Cc2ccccc2)C(=O)N1C (centres unmarked) [YM-254890, reference compound] (Ac-T[PhLac][NMeDha]A[NMeA][X1][NMeT](Me); ester 1-C; configuration not given here), the “effect on cOpn5-mediated, light-induced Ca2+ signals” value ([3]; YM-254890 10 nM preincubation, cOpn5-expressing HEK 293T cells) was “reversibly abolishes; also recorded: reversibly blocked”, the “effect on turtle Opn5-mediated, light-induced Ca2+ signals” value ([3]; YM-254890 10 nM, turtle Opn5-expressing HEK 293T cells) was “reversibly blocked” and the “effect on light-evoked IP1 accumulation in cOpn5-expressing cells” value [4] was “reduced”. For the same molecule, the “effect on light-evoked IP1 accumulation in cOpn5-expressing cells” value ([4]; listed as YM) was “suppressed”.

For Turtle Opn5 (opsin 5) (receptor), the light-induced Ca^2+ signal (Calbryte 630 AM) in HEK 293T cells (Gq proteins [1]) was 3 ΔF/F.

In the case of “hOPN5: Human (Homo sapiens) Opn5 ortholog, GenBank AY377391.1 [reference compound]”, the “light-induced increase in Ca2+ signal” value [3] is reported as “no light effect”, the “effect of blue light illumination on cAMP levels” value (Gi signaling) is reported as “effectively reduces cAMP levels” and the “light-induced increase in the level of inositol phosphate (IP1)” value ([4]; listed as human OPN5) is reported as “not”. For the same molecule, the “light-induced increase in the level of inositol phosphate (IP1)” value ([4]; listed as human Opn5) was “no significant difference”.

For opto-a1AR (receptor), the light-induced Ca^2+ signal in HEK 293T cells (Gq proteins [5]) was 0.5 ΔF/F.

In the case of “human OPN4 (melanopsin) (from UniProt Q9UHM6) (receptor)”, the light-induced Ca^2+ signal in HEK 293T cells (Gq proteins [5]) is reported as 1 ΔF/F.

B1: tOpn5: Turtle (Chelonia mydas) Opn5 ortholog, SEQ ID NO:2, GenBank XM_007068312.4 (protein)
chain: MASNHSTSPQDDHLPHYLQDEDPFASKLSREADIVAGFYLTIIGVLSTFGNGYVLFMSLKRKKKLKPAEIMTVNLAMCDLGISVVGKPFSIISFFSHRWVFGWLGCRWYGWAGFFFGCGSLITLTAVSLDRYLKICHLTYGTWLKRHHAFICLAIIWAYATFWATVPFAGLGNYAPEPFGTSCTLDWWLAQGSVAGQAFILNILFFCLLLPTAVIVFSYVKIIAKVKSSAKEVAHYDTRIQNSHVLEIKLTKVAMLICAGFLIAWIPYAVVSVWSAFGQPDSVPIQVSVIPTLLAKSAAMYNPIIYQVIDCKFSCCRSLQKKSSLKKSRLYTISGNREPTEMNETHLEL
modifications: Chelonia mydas
For B1, the “light-induced increase in Ca2+ signal” value [3] was ~3 ΔF/F.

B2: mOpn5: Mouse (Mus musculus) Opn5 ortholog, GenBank NM_181753.4 (protein)
chain: MALNHTALPQDERLPHYLRDEDPFASKLSWEADLVAGFYLTIIGILSTFGNGYVLYMSSRRKKKLRPAEIMTINLAVCDLGISVVGKPFTIISCFCHRWVFGWFGCRWYGWAGFFFGCGSLITMTAVSLDRYLKICYLSYGVWLKRKHAYICLAVIWAYASFWTTMPLVGLGDYAPEPFGTSCTLDWWLAQASGGGQVFILSILFFCLLLPTAVIVFSYAKIIAKVKSSSKEVAHFDSRIHSSHVLEVKLTKVAMLICAGFLIAWIPYAVVSVWSAFGRPDSIPIQLSVVPTLLAKSAAMYNPIIYQVIDYRFACCQAGGLRGTKKKSLEDFRLHTVTAVRKSSAVLEIHPESSSRFTSAHVMDGESHSNDGDCGKK
In the case of B2, the “light-induced increase in Ca2+ signal” value [3] is reported as “no light effect” and the “effect of blue light illumination on cAMP levels” value (Gi signaling) is reported as “effectively reduces cAMP levels”.

B3: human melanopsin: a natural opsin (melanopsin, Opn4) reported as a tool for Gq signaling activating (protein)
chain: MNPPSGPRVPPSPTQEPSCMATPAPPSWWDSSQSSISSLGRLPSISPTAPGTWAAAWVPLPTVDVPDHAHYTLGTVILLVGLTGMLGNLTVIYTFCRSRSLRTPANMFIINLAVSDFLMSFTQAPVFFTSSLYKQWLFGETGCEFYAFCGALFGISSMITLTAIALDRYLVITRPLATFGVASKRRAAFVLLGVWLYALAWSLPPFFGWSAYVPEGLLTSCSWDYMSFTPAVRAYTMLLCCFVFFLPLLIIIYCYIFIFRAIRETGRALQTFGACKGNGESLWQRQRLQSECKMAKIMLLVILLFVLSWAPYSAVALVAFAGYAHVLTPYMSSVPAVIAKASAIHNPIIYAITHPKYRVAIAQHLPCLGVLLGVSRRHSRPYPSYRSTHRSTLTSHTSNLSWISIRRRQESLGSESEVGWTHMEAAAVWGAAQQANGRSLYGQGLEDLEAKAPPRPQGHEAETPGKTKGLIPSQDPRM
For B3, the “effect of light on Ca2+ signals without ATR” value ([3]; OPN4-expressing cells, 25 s light, without ATR) was “lack of effect”, the “Light Sensitivity” value ([3]; Table 8, HEK 293T) was 40 mW/mm^2 and the “Response amplitude: Ca2+ response amplitude” value ([3]; Table 8, HEK 293T, light as in the row's sensitivity and duration columns) was ~0.646 (ΔF/F). The “Ca2+ signal increase” value ([3]; opn4-expressing cells, 25 s, 40 mW/mm2, additional retinal) was ~1 ΔF/F, the “Light Sensitivity” value (in vivo astrocytes) was 7 mW/mm^2 and the “Response amplitude: Ca2+ event frequence” value (in vivo astrocytes) was ~2 (ΔF/F). For the same molecule, the “change in Ca2+ amplitude” value (in vivo astrocytes) was “no significant”.

B4: mouse melanopsin (Opn4): mouse melanopsin, literature optogenetic tool in Table 8 (protein, UniProt Q9QXZ9 1-521, looked up)
Melanopsin: MDSPSGPRVLSSLTQDPSFTTSPALQGIWNGTQNVSVRAQLLSVSPTTSAHQAAAWVPFPTVDVPDHAHYTLGTVILLVGLTGMLGNLTVIYTFCRNRGLRTPANMFIINLAVSDFLMSVTQAPVFFASSLYKKWLFGETGCEFYAFCGAVFGITSMITLTAIAMDRYLVITRPLATIGRGSKRRTALVLLGVWLYALAWSLPPFFGWSAYVPEGLLTSCSWDYMTFTPQVRAYTMLLFCFVFFLPLLIIIFCYIFIFRAIRETGRACEGCGESPLRQRRQWQRLQSEWKMAKVALIVILLFVLSWAPYSTVALVAFAGYSHILTPYMSSVPAVIAKASAIHNPIIYAITHPKYRVAIAQHLPCLGVLLGVSGQRSHPSLSYRSTHRSTLSSQSSDLSWISGRKRQESLGSESEVGWTDTETTAAWGAAQQASGQSFCSQNLEDGELKASSSPQVQRSKTPKVPGPSTCRPMKGQGARPSSLRGDQKGRLAVCTGLSECPHPHTSQFPLAFLEDDVTLRHL
In the case of B4, the Light Sensitivity (HEK293-TRPC3 cells; (500 nm)) is given as 1e+15 photons s^−1 cm^−2 and the “Response amplitude: Ca2+ response ampitude” value (HEK293-TRPC3 cells) is given as ~0.1 (ΔF/F).

From patent publication US20250011391A1, “ULTRA LIGHT-SENSITIVE NEUROPSIN-BASED OPTOGENETIC TOOL FOR ACTIVATING G q-COUPLED SIGNALING AND/OR ACTIVATING CELLS” (GENANS BIOTECHNOLOGY CO., LTD, priority 2021, published 2025)
